The target in experiment [1] is T1, human IGF-I receptor on cells (NIH-3T3 fibroblasts expressing the human IGF-IR; DU145 cells) (human, UniProt P08069 31-1367). In words: cell-based or functional assay.
For experiment [2], the target named is T1, human IGF-I receptor on cells (NIH-3T3 …). Nature of the experiment: cell-based or functional assay. The source holds these as a separate data set.
Experiment [3] has the same target. Nature of the experiment: competition with 125I-IGF-I, NIH-3T3 cells expressing human IGF-1R, 4 C. As for the experimental part:
(§1) NIH-3T3 fibroblasts expressing the human IGF-IR, or NIH-3T3 non-transfected fibroblasts were plated at 6×10⁴ cells per well in 0.5 ml of DMEM (Gibco, #11960-044) supplemented with 10% heat-inactivated fetal bovine serum (Gibco, #16140-071), 2 mM L-glutamine (Gibco, #25030-081) and 50 U/ml penicillin-streptomycin (Gibco, #15070-063). The NIH-3T3 cells were used as a control for non-specific cell binding. The plates were incubated at 37° C./5% CO₂ for 24 hours to allow cells to attach and become 80-90% confluent. The overlying media was then replaced with 0.5 ml per well of starvation media consisting of DMEM, 20 mM Hepes (Gibco, #15630-080), 2 mM L-glutamine and 0.1% bovine serum albumin (Equitech-Bio, protease-free, Kerrville, Tex.) and the plates were incubated at 37° C., 5% CO₂ overnight. All subsequent binding steps were conducted at 4° C. Test antibodies were diluted in ice-cold starvation media to the desired final concentration and 100 μl added per well. All samples were performed in duplicate. […] Cell monolayers were washed three times with ice-cold PBS (Gibco, #14040-117) and cells and associated radioactivity were released by adding 0.5ml 2% sodium dodecyl sulfate/0.2N NaOH to each well and heating the plates at 60° C. for 15 minutes. Lysate associated radioactivity was quantitated by gamma scintillation spectrometry. Alternatively, the same described experiment was performed with preincubation with the test antibodies at 37° C. for 10 minutes, followed by 10 minutes incubation at 37° C. after addition of 400 pM of the iodinated radioligand.

Experiment [4] shares this target. In words: competition with 125I-IGF-I, NIH-3T3 cells expressing human IGF-1R, 37 C. The procedure:
as §1, with “Alternatively, the same described experiment was performed with preincubation with the test antibodies at 37° C. for 10 minutes, followed by 10 minutes incubation at 37° C. after addition of 400 pM of the iodinated radioligand.” left out

For experiment [5] the target is unchanged. Nature of the experiment: competition with 125I-IGF-II, NIH-3T3 cells expressing human IGF-1R, 4 C. The procedure:
as §1

The target is the same in experiment [6]. Nature of the experiment: competition with 125I-IGF-II, NIH-3T3 cells expressing human IGF-1R, 37 C.
Experiment [7] has the same target. In words: saturation binding of 125I-labelled IgG to NIH-3T3 cells expressing human IGF-1R, on ice; unit inferred. As for the experimental part: The mixtures were in incubated on ice for 70 min. After the incubation the tubes were centrifuged at 1000 rpm for 1 min and the supernatant fractions were removed by aspiration. The cell pellets were washed with 50 μl of ice-cold Hanks' Balanced Salt Solution containing 0.2% BSA and 20 mM Hepes and centrifuged at 1000 rpm for […] and the supernatant fractions were removed by aspiration. The resulting cell pellets were counted in Perkin Elmer Cobra Quantum gamma counter. […] The specific binding was obtained by subtracting the non-specific binding counts from the total binding counts in corresponding pairs.

“And” between values parts separate entries of the source, which are not always exact repeats. Equal values may be shown once.

The source of these data is patent publication US20040202655A1 (published 2004).

B1: PINT-11A4 IgG (antibody, V domains shown)
VH: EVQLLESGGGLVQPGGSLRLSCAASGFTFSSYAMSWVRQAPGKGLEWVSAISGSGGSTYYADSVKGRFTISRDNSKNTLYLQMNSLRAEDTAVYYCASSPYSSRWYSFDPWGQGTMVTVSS
VL: LSYELTQPPSVSVSPGQTATITCSGDDLGNKYVSWYQQKPGQSPVLVIYQDTKRPSGIPERFSGSNSGNIATLTISGTQAVDEADYYCQVWDTGTVVFGGGTKLTVLG
A word on the IC50: it is the concentration needed to halve the response being measured. A higher IC50 goes with a need for much substance. By Kd is commonly meant the concentration at which binding is half-saturated. High values mean a looser complex, low ones a tighter complex. Turning to B1, the “IC50 (nM), IGF-1 dependent proliferation of NIH-3T3/hIGF-1R cells (BrdU ELISA)” value in experiment [1] is 3.4 nM and 2.6 nM. Moreover, the “Antagonist Assay IC50 (nM), IGF-I-induced IGF-1R tyrosine phosphorylation (ELISA)” value in experiment [2] was 2.4 nM and 3.3 nM. The IC50 was more than 100 nM in experiment [3]; 1.9 nM in experiment [4]; more than 75 nM in experiment [5]; 3 nM and 2.6 nM in experiment [6]. Also, the dissociation constant (Kd) in experiment [7] is 2.24 nM.
